According to patent publication US20040033534A1 (WISCONSIN ALUMNI RESEARCH FOUNDATION, published 2004):
Positions of bridges follow the written chain, without caps; N, C: chain ends. No end group written: not given here.

Experiments:
[1] = target: T1, VanR~P (phosphorylated VanR) (Enterococcus faecium, UniProt Q06239 1-231, phosphorylated with acetyl phosphate; Asp-55 is named as the residue that accepts the phosphoryl group); test: not stated (comparison of VanR and VanR˜P; reference is unphosphorylated VanR)
[2] = target: T1, VanR~P (phosphorylated VanR); test: cell-based or functional assay
[3] = target: PhoB (complete PhoB sequence)

T1 sequence (Q06239 whole entry): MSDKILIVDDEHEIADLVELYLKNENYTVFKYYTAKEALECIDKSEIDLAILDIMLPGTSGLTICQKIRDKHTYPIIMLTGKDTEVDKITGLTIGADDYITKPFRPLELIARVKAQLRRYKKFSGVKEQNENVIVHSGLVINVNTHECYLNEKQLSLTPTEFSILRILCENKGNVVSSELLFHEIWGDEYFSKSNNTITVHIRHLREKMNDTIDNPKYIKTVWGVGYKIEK

## SLCHDSVIGWEC (disulfide 3-12 (inferred), also called Peptide E12) [dodecamer peptide SEQ ID NO. 1]
[1]
  fold difference between binding to VanR and binding to VanR˜P: > 100 fold

## SLAHDSIIGYLS [peptide SEQ ID NO. 2]
[2]
  IC50 for inhibiting VanR˜P binding to [32P] PVanH (gel shift), relative to SEQ ID NO. 1: 10 fold

B1: GST-VanSc (Arg-93-TAA-283 stop) (protein)
chain: RVMLSKFAKYFDEINTGIDVLIQNEDKQIELSAEMDVMEQKLNTLKRTLEKREQDAKLAEQRKNDVVMYLAHDIKTPLTSIIGYLSLLDEAPDMPVDQKAKYVHITLDKAYRLEQLIDEFFEITRYNLQTITLTKTHIDLYYMLVQMTDEFYPQLSAHGKQAVIHAPEDLTVSGDPDKLARVFNNILKNAA
[3]
  phosphoryl transfer from VanS˜P to PhoB: VanS˜P was incubated with PhoB, and phosphoryl transfer was assessed
